Residue numbers refer to the chain shown, from its start. Numbers in names are those of the source.
B1: hAb18-2 (antibody, human IgG1, kappa, L234A L235A, V domains shown)
VH: EVQLVQSGAEVKKPGASVKVSCKASGYTFTDYAMHWVRQAPGQRLEWMGVISTYSGTTNYNQNFKGRVTITVDKSASTAYMELSSLRSEDTAVYYCARSGPLDYWGQGTTVTVSS
VL: ENVLTQSPDFQSVTPKEKVTITCRASSSVSSSYLHWYQQKPDQSPKLWIYSTSNLASGVPSRFSGSGSGTDYTLTINSLEAEDAATYYCQQYSGYPLTFGQGTKLEIKR
notes: humanized mAb-18: hAb18VH1 + hAb18VL2; human IgG1 (L234A, L235A) / kappa constant regions
B2: hAb18-4 (antibody, human IgG1, kappa, L234A L235A, V domains shown)
VH: B1 VH with A24G, I70V
VL: B1 VL
notes: humanized mAb-18: hAb18VH2 + hAb18VL2; human IgG1 (L234A, L235A) / kappa constant regions
B3: hAb18-5 (antibody, human IgG1, kappa, L234A L235A, V domains shown)
VH: B1 VH with A24G, M48I, V68A, I70V
VL: B1 VL with N2I, Y72F
notes: humanized mAb-18: hAb18VH3 + hAb18VL1; human IgG1 (L234A, L235A) / kappa constant regions
B4: hAb18-1 (antibody, human IgG1, kappa, L234A L235A, V domains shown)
VH: B1 VH
VL: B1 VL with N2I, Y72F
notes: humanized mAb-18: hAb18VH1 + hAb18VL1; human IgG1 (L234A, L235A) / kappa constant regions
B5: hAb18-3 (antibody, human IgG1, kappa, L234A L235A, V domains shown)
VH: B1 VH with A24G, I70V
VL: B1 VL with N2I, Y72F
notes: humanized mAb-18: hAb18VH2 + hAb18VL1; human IgG1 (L234A, L235A) / kappa constant regions
B6: hAb18-6 (antibody, human IgG1, kappa, L234A L235A, V domains shown)
VH: B1 VH with A24G, M48I, V68A, I70V
VL: B1 VL
notes: humanized mAb-18: hAb18VH3 + hAb18VL2; human IgG1 (L234A, L235A) / kappa constant regions
B7: hAb99-6 (antibody, human IgG1, kappa, L234A L235A)
heavy: not shown
light: DIQMTQSPSSLSASVGDRVTITCRASKSISKFLAWFQQKPGKTNKLLIYSGSTLQSGVPSRFSGSGSGTDFTLTISSLQPEDFATYYCQQHNEYPWTFGGGTKVEIKRTVAAPSVFIFPPSDEQLKSGTASVVCLLNNFYPREAKVQWKVDNALQSGNSQESVTEQDSKDSTYSLSSTLTLSKADYEKHKVYACEVTHQGLSSPVTKSFNRGEC
notes: humanized mAb-99: hAb99VH2 + hAb99VL2; human IgG1 (L234A, L235A) / kappa constant regions
B8: hAb99-4 (antibody, human IgG1, kappa, L234A L235A, V domains shown)
VH: EVQLVQSGAEVKKPGASVKVSCKASGYTFTNYGINWVRQAPGQRLEWMGYIYIGNGDIEYNAKFKGRVTITSDTSASTAYMELSSLRSEDTAVYYCARGRGLGHFDVWGQGTTVTVSS
VL: DVQITQSPSSLSASVGDRVTITCRASKSISKFLAWFQEKPGKTNKLLIYSGSTLQSGIPSRFSGSGSGTDFTLTISSLQPEDFATYYCQQHNEYPWTFGGGTKVEIKR
notes: humanized mAb-99: hAb99VH1 + hAb99VL4; human IgG1 (L234A, L235A) / kappa constant regions
B9: hAb99-2 (antibody, human IgG1, kappa, L234A L235A)
heavy: not shown
light: B7 light
notes: humanized mAb-99: hAb99VH1 + hAb99VL2; human IgG1 (L234A, L235A) / kappa constant regions
B10: hAb99-8 (antibody, human IgG1, kappa, L234A L235A, V domains shown)
VH: B8 VH with R44G
VL: B8 VL
notes: humanized mAb-99: hAb99VH2 + hAb99VL4; human IgG1 (L234A, L235A) / kappa constant regions
B11: hAb99-9 (antibody, human IgG1, kappa, L234A L235A, V domains shown)
VH: B8 VH with A24T, R44G, Y95F
VL: B8 VL with V2I, I4M, F36Y, E38Q, T43A, I58V
notes: humanized mAb-99: hAb99VH3 + hAb99VL1; human IgG1 (L234A, L235A) / kappa constant regions
B12: hAb99-15 (antibody, human IgG1, kappa, L234A L235A, V domains shown)
VH: B8 VH with N55Q
VL: B8 VL with V2I, I4M, E38Q, I58V
notes: humanized mAb-99: hAb99VH1-QG + hAb99VL2; human IgG1 (L234A, L235A) / kappa constant regions
B13: hAb99-10 (antibody, human IgG1, kappa, L234A L235A)
heavy: not shown
light: B7 light
notes: humanized mAb-99: hAb99VH3 + hAb99VL2; human IgG1 (L234A, L235A) / kappa constant regions
B14: hAb99-18 (antibody, human IgG1, kappa, L234A L235A, V domains shown)
VH: B8 VH with R44G, N55Q
VL: B8 VL with V2I, I4M, E38Q, I58V
notes: humanized mAb-99: hAb99VH2-QG + hAb99VL2; human IgG1 (L234A, L235A) / kappa constant regions
B15: hAb99-11 (antibody, human IgG1, kappa, L234A L235A)
heavy: not shown
light: B7 light with I2V, M4I
notes: humanized mAb-99: hAb99VH3 + hAb99VL3; human IgG1 (L234A, L235A) / kappa constant regions
B16: hAb99-3 (antibody, human IgG1, kappa, L234A L235A)
heavy: not shown
light: B7 light with I2V, M4I
notes: humanized mAb-99: hAb99VH1 + hAb99VL3; human IgG1 (L234A, L235A) / kappa constant regions
B17: hAb99-17 (antibody, human IgG1, kappa, L234A L235A, V domains shown)
VH: B8 VH with R44G, G56L
VL: B8 VL with V2I, I4M, E38Q, I58V
notes: humanized mAb-99: hAb99VH2-NL + hAb99VL2; human IgG1 (L234A, L235A) / kappa constant regions
B18: hAb99-21 (antibody, human IgG1, kappa, L234A L235A, V domains shown)
VH: B8 VH with A24T, R44G, N55Q, Y95F
VL: B8 VL with V2I, I4M, E38Q, I58V
notes: humanized mAb-99: hAb99VH3-QG + hAb99VL2; human IgG1 (L234A, L235A) / kappa constant regions
B19: hAb99-12 (antibody, human IgG1, kappa, L234A L235A, V domains shown)
VH: B8 VH with A24T, R44G, Y95F
VL: B8 VL
notes: humanized mAb-99: hAb99VH3 + hAb99VL4; human IgG1 (L234A, L235A) / kappa constant regions
B20: hAb99-1 (antibody, human IgG1, kappa, L234A L235A, V domains shown)
VH: B8 VH
VL: B8 VL with V2I, I4M, F36Y, E38Q, T43A, I58V
notes: humanized mAb-99: hAb99VH1 + hAb99VL1; human IgG1 (L234A, L235A) / kappa constant regions
B21: hAb99-19 (antibody, human IgG1, kappa, L234A L235A, V domains shown)
VH: B8 VH with A24T, R44G, G56V, Y95F
VL: B8 VL with V2I, I4M, E38Q, I58V
notes: humanized mAb-99: hAb99VH3-NV + hAb99VL2; human IgG1 (L234A, L235A) / kappa constant regions
B22: hAb99-14 (antibody, human IgG1, kappa, L234A L235A, V domains shown)
VH: B8 VH with G56L
VL: B8 VL with V2I, I4M, E38Q, I58V
notes: humanized mAb-99: hAb99VH1-NL + hAb99VL2; human IgG1 (L234A, L235A) / kappa constant regions
B23: hAb99-7 (antibody, human IgG1, kappa, L234A L235A)
heavy: not shown
light: B7 light with I2V, M4I
notes: humanized mAb-99: hAb99VH2 + hAb99VL3; human IgG1 (L234A, L235A) / kappa constant regions
B24: hAb99-5 (antibody, human IgG1, kappa, L234A L235A, V domains shown)
VH: B8 VH with R44G
VL: B8 VL with V2I, I4M, F36Y, E38Q, T43A, I58V
notes: humanized mAb-99: hAb99VH2 + hAb99VL1; human IgG1 (L234A, L235A) / kappa constant regions
B25: hAb99-16 (antibody, human IgG1, kappa, L234A L235A, V domains shown)
VH: B8 VH with R44G, G56V
VL: B8 VL with V2I, I4M, E38Q, I58V
notes: humanized mAb-99: hAb99VH2-NV + hAb99VL2; human IgG1 (L234A, L235A) / kappa constant regions
B26: hAb99-20 (antibody, human IgG1, kappa, L234A L235A, V domains shown)
VH: B8 VH with A24T, R44G, G56L, Y95F
VL: B8 VL with V2I, I4M, E38Q, I58V
notes: humanized mAb-99: hAb99VH3-NL + hAb99VL2; human IgG1 (L234A, L235A) / kappa constant regions

These binders were tested against T1, human KLB on CHOK1-hKLB cells (human, UniProt Q86Z14 1-1044) (assay: flow cytometry on CHOK1-hKLB cells).
T1 construct: whole, on cells; also called human KLB antigen; β-Klotho
T1 sequence (looked up): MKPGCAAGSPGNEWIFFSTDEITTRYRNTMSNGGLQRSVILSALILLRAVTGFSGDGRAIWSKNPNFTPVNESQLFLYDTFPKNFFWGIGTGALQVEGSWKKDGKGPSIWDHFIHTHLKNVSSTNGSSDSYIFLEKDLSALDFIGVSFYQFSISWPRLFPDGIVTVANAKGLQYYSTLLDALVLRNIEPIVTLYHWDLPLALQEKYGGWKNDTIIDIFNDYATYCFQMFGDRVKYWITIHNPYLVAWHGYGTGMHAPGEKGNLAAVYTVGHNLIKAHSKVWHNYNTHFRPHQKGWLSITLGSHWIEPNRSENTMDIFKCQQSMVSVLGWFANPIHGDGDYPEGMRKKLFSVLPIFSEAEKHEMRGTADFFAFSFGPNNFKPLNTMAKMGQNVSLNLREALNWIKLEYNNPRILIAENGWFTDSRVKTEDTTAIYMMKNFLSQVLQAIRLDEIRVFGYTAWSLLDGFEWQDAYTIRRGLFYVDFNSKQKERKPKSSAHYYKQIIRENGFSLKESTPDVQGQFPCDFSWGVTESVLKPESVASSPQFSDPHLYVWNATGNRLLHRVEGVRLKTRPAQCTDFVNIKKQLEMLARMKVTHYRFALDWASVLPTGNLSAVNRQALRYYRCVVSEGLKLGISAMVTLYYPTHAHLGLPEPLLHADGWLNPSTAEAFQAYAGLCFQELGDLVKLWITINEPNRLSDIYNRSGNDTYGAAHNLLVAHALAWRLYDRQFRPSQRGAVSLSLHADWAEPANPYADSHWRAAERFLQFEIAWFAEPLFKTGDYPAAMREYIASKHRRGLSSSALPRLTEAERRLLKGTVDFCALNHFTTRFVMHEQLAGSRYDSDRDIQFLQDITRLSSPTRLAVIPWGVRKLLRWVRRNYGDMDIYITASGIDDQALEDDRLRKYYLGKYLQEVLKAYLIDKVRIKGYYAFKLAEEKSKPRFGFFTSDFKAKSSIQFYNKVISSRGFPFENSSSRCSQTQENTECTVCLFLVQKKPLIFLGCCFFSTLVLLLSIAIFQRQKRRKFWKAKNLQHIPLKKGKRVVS
Source text: The above heavy chain variable regions were fused to the heavy chain constant region (set forth in SEQ ID NO: 22) and the light chain variable regions were fused to the light chain constant region (set forth in SEQ ID NO: 23) to construct anti-KLB antibodies, and the binding activity of the obtained antibodies for CHOK1-hKLB was detected (see Test Example 2 of the present disclosure for the experimental method).
The binding ability of the antibodies for CHOK1 cell strains CHOK1-hKLB and CHOK1-cynoKLB overexpressing human KLB and monkey KLB (see Example 1 for specific preparation procedure), respectively, was detected by flow cytometry. The specific procedure was as follows: the above cells were cultured in 10% FBS-containing IMDM medium and incubated in an incubator at 37° C. and 5% CO₂ for 2 days. The cells were then added to a cell plate at 1×10⁵ cells per well, centrifuged at 300 g for 5 min, and then washed once with 1% BSA. The antibody diluted in gradient was added to the cell plate at 100 μL per well, and the mixture was incubated at 4° C. for 1 h and washed once with 1% BSA. The diluted (1:400) APC-goat anti-human IgG Fc fluorescent secondary antibody was added at 100 μL per well, and the resulting mixture was incubated at 4° C. for 1 h. The plate was washed three times with 1% BSA, PBS was added at 100 μL per well, and the plate was read.

| Binder | EC50 |
| --- | --- |
| B1 | 1580 pM |
| B2 | 2000 pM |
| B3 | 1800 pM |
| B4 | 1340 pM |
| B5 | 1900 pM |
| B6 | 2000 pM |
| B7 | 410 pM |
| B8 | 370 pM |
| B9 | 350 pM |
| B10 | 390 pM |
| B11 | 470 pM |
| B12 | 410 pM |
| B13 | 360 pM |
| B14 | 430 pM |
| B15 | 330 pM |
| B16 | 350 pM |
| B17 | 430 pM |
| B18 | 450 pM |
| B19 | 330 pM |
| B20 | 610 pM |
| B21 | 380 pM |
| B22 | 600 pM |
| B23 | 350 pM |
| B24 | 500 pM |
| B25 | 470 pM |
| B26 | 410 pM |
